Article PMC8181125

Legend:
Settings in all cases: glycan lost; control: wild type
[1] = Western blot of transfected HEK293A cell lysates
[2] = Western blot of full-length PDGF-C in conditioned medium
[3] = immunofluorescence with Golgi marker TGN46, HEK293A
[4] = Western blot of core domain in conditioned medium
[5] = immunofluorescence colocalisation with ER marker ERP72, HEK293A

Substance	expression_or_secretion [1]	expression_or_secretion [2]	localisation_or_trafficking [3]	other: proteolytic processing [4]	localisation_or_trafficking [5]
PDGF-C (full-length, PC-FL): N25A	no change	no change	no change	no change	no change
PDGF-C (full-length, PC-FL): N25A + N55A	no change	no change	–	–	–
PDGF-C (full-length, PC-FL): N25A + N254A	no change	no change	–	abolishes	–
PDGF-C (full-length, PC-FL): N55A	no change	no change	no change	no change	no change
PDGF-C (full-length, PC-FL): N55A + N254A	no change	no change	–	abolishes	–
PDGF-C (full-length, PC-FL): N254A	no change	no change	no change	–	no change
PDGF-C (full-length, PC-FL): triple NA mutant	no change	no change	–	abolishes	–
